{"source": "the DeepSol protein solubility set", "experiment": "soluble on expression in E. coli; label from the status in PepcDB or PDB records"}
{"sequence": "MPCFFFILDTSGSMSTRAHPQFSFFDLAKNFIENFIKQRTKGDNRMMVGRETDKYFLMTTQARYPKNVKVACEKLGAVVIEEIKKLHLPYGSCQLHHAILEAFKVLHVSRVQTGIDGVGIGRLISNTEPVTMILLTDGSGVAGIPIDFRLFFDPPFLGSEMTRDAFRWDQKFYTVVFRIPSTPYRPTISQLTAIDIDMPVIERLCARTGGRSFSIVSPRQIQTTIDYLLAMGNQYKIGVRFECLPAIPAPITSDEVNLVKMKFKKVIDKRPVTNIISRLNPQARPVTCHWPIPESFFPMRTMDQLPQRTSHPVILCAPIALPLHIRPELPVDKLELEPGGISDIIMEILQGRKDMTVWTYMEGSSNGPTAPFGCLRMNTLGTGITLILMPFNFPMLYSLVEEIVKEPFLNKSQVWRSKLESYFHTVPFYYNTQIRVCLDKFDVKVDYSSSMSMFYPGQLLSNLNRFKAKAREELDQMAIASKLNDSKTLKIVNPSIRIERITSRSTIIGLGNSEVDIEDDSLEGYESTPIYAGDFKIPLYPPSITDAQLDSAYRTPYSSPIEDLTSKLNRIQANIELMFDPNKITLLDMAKLGTKARFNTLGLCFFHPIFLANSTSRKFYIQKFETLQVMDSAVVDNNSPSTSGQPKRFGGEGRQGGGPPKRRRGPLGIDAYDQYRIRRSMRGSSAGSDISDISSSLGTFDQDSDMTTPGTSGMNTPISEFDDLQLQEMDSDDQLMKNLDEVQALRKKEEAQVQPKIKKPPPVPPASILSSQEILTRKIRIGSIIRKPANHCAFEEIMTLVAGITQEACSQLIKYALRESQRFKLKQLTERLENRLKTV", "values": [{"measurement": "soluble on expression in E. coli", "value": "not soluble"}]}
{"sequence": "MVNGDGNPREVIEDLAANNPAIQNIRLRHENKDLKARLENAMEVAGRDFKRAEELEKAKQALEDQRKDLETKLKELQQDYDLAKESTSWDRQRLEKELEEKKEALELAIDQASRDYHRATALEKELEEKKKALELAIDQASQDYNRANVLEKELE", "values": [{"measurement": "soluble on expression in E. coli", "value": "soluble"}]}
{"sequence": "AIADEVKECLRDFPKEARELYLNDAVPYLDEPLSPLQFYRDWIGPNKPCIIRNAFNDWPALSKWNPTYLREKVGSKVISVAVTPNGFADAVNGNRFVMPEERQMSFSSLLDIVEGKIKSSAVFYVQKQCSNLMEEIPELTGDVQTHIPWMSEALGKLPDAVNFWLGEESAVTSMHKDHYENLYCVISGQKEFILLPPTDRPFIPYELYQPATYRQKDDGTFEIVDEENSPKVPWIPLDPLKPDFERFPSYRHAKALHCTVKAGEMLYLPSLWFHHVRQSHGCIAVNFWYDMEYDIKYNYFQLVEALTNAVGSL", "values": [{"measurement": "soluble on expression in E. coli", "value": "soluble"}]}
{"sequence": "DVAVRTLSDVPSAAPQNLSLEVRNSKSIMIHWQPPAPATQNGQITGYKIRYRKASRKSDVTETLVSGTQLSQLIEGLDRGTEYNFRVAALTINGTGPATDWLSAETFESDLDETRVPEV", "values": [{"measurement": "soluble on expression in E. coli", "value": "soluble"}]}
{"sequence": "VTQLPQPTWRWWQQRETEQVQSSHIDGEIVGALIPDLAVLHSEDASRAAVGREKHRCSLDPLGGGFRSRRASMPAGALLLSAVIAIQLDRMNARVFGDGWIGAQACMWVNKFHEESTVTALSPSSPIAQGSIARHPETMQSAYVRIAEGGSRDVAPAAQLQRRRP", "values": [{"measurement": "soluble on expression in E. coli", "value": "not soluble"}]}
{"sequence": "MGSDKIHHHHHHMNLRRDALQILKETSRTFYIPISLLPPGLQEAVASAYLCMRAIDEIEDHPEIDNATKAKLLRSISLTLQAGVDGFAVEAFFTGFNGYENTLEEVTLRIREWLLLAPETIAPRIWDATAAMSDRMAYWSERNWKIYTESDLDRYTFGVAGAVGLLLSDLWTWYDGTQTNRTQAIGFGRGLQAVNILRNHTEDLRRGVDFFPEGWSAENMQEYARRNLALAEAYTKGLPTGPALDFCQIPLTLANGTLDALANGKEKLSRSDVFALIEQIISVNMKAS", "values": [{"measurement": "soluble on expression in E. coli", "value": "not soluble"}]}
{"sequence": "MGSDKIHHHHHHMLKVSDLRLKYPNGQRKIFDHLNITIQDKEKVLLLGPSGCGKSTLLNVLSGIVPNLIELPMKYDELIVDPLSGVIFQDPDSQFCMPKVYEELAFVLENRQVPREDMDALIINALNMVNLNVTPETYIKDLSGGMKQKLAIVETILQQSKTLFLDEPTAMLDVQATEDLWTKLIELWEDQTVVIVEHKVKHIWNHVDRVILMDYNGNIIADECPEIILQKYVHLLSEYGVWHPRAWEFAPSRVDFPTTNSHLLQFKNGRIIRGKSTLLSFSDLEIGLGEWITITGANGSGKTTLLESIMQLIKYQGDVYFENQRLTKIKHAAKHMYLVYQNPELQFITNSVYDEINIHFNHLSKDQSDDETIQLLKLLDLQNVKDQHPYELSIGQKRRLSVATALSSKADIIFLDEPTFGLDSHNTFQLIKLFQKRINLGQSIVMVTHDDEIIERYPSRRLKISDGALLDCDGDTNV", "values": [{"measurement": "soluble on expression in E. coli", "value": "not soluble"}]}
{"sequence": "MKATTVKENEVKDDRKLSLNEMLRKRCLQVKNTKMKNSSMPKFQYFVRLNGKTRTLNVNASDTVEQGKMQLCHNARSTRMSYGGKPLSDQITFGEYNISNNSTMDLHFRI", "values": [{"measurement": "soluble on expression in E. coli", "value": "not soluble"}]}
{"sequence": "MVLGTVLLPPNSYGRDQDTSLCCLCTEASESALPDLTEALHRPYGCDVEPQALNEAIRWSSKENLLGATESDPNLFVALYDFVASGDNTLSITKGEKLRVLGYNQNGEWSEVRSKNGQGWVPSNYITPVNSLEKHSWYHGPVSRSAAEYLLSSLINGSFLVRESESSPGQLSISLRYEGRVYHYRINTTADGKVYVTAESRFSTLAELVHHHSTVADGLVTTLHYPAPKCNKPTVYGVSPIHDKWEMERTDITMKHKLGGGQYGEVYVGVWKKYSLTVAVKTLKEDTMEVEEFLKEAAVMKEIKHPNLVQLLGVCTLEPPFYIVTEYMPYGNLLDYLRECNREEVTAVVLLYMATQISSAMEYLEKKNFIHRDLAARNCLVGENHVVKVADFGLSRLMTGDTYTAHAGAKFPIKWTAPESLAYNTFSIKSDVWGKVERDFFLCHFIFFFINALIL", "values": [{"measurement": "soluble on expression in E. coli", "value": "soluble"}]}
{"sequence": "MSLKLSDPGPIFYGHRRVGHNGRYFHCLKFRTMAMNGDEMLRQYLAANPEAAEEWRATRKLKNDPRVTAVGAVLRKLSLDELPQLLNIIRGEMSVVGPRPVVDEELSYYENAAAYYLSTRPGLTGLWQISGRNDVSYKTRVAFDTQYVQNWSMRQDVFIIVKTIPAVCMSRGSYEGHHHHHH", "values": [{"measurement": "soluble on expression in E. coli", "value": "soluble"}]}
{"sequence": "MRGVVFLHAFPYSPRMWEGEVALLKTRLPVLAPHYLGLSLGKAAEKVLGEMDEAGLEQAVFVGLSMGGYLVFELFRKAPERFLGTVLSSTRAGPDSEEAKRNRYALRERVLKDGVGFLPEALLPSHLGRTTQATKPEVVEKVRAIILEASPEAVAETLVALAERPDSTPLLSRMQVPALVLVGEEDTLTPPEEARRMWKALPDARMLILPETGHLANLENPKAFRTALLGFLAEFF", "values": [{"measurement": "soluble on expression in E. coli", "value": "soluble"}]}
{"sequence": "MGSDKIHHHHHHLRVKKKWFIPIGILALSSWFLYRENNQIDTTAVTVQSDKLPAAFNDYKILQIADLHGKSFGSRQKVLLKKVNKLQPDVILMTGDLIDSRRNGEEEALLLMKQLTPDYPVYFVTGNHEVRLNLTILPKLEQLGVTVLRNTSVSLEQNGQFIELLGIDDPTTTRWSEGLQEPDGIRQSLDQAQSTAETRSFQLLMAHRPEYLPLYAERKVDLVLSGHAHGGQIRLPFTDGMYAPGQGFFPDLTAGQHTMENTRLIISRGLGNSLFPFRIFNHPELIVVTLRT", "values": [{"measurement": "soluble on expression in E. coli", "value": "not soluble"}]}
{"sequence": "GFKCGIVGLPNVGKSTLFNALTKAGIEAANFPFCTIEPNTGVVPMPDPRLDQLAEIVKPQRTLPTTMEFVDIAGLVKGASKGEGLGNQFLTNIRETEAIGHVVRCFENDNIIHVSGKVNPADDIEVINTELALADLDTCERAIHRVQKKAKGGDKDAKAELAVLEKCLPQLENAGMLRALDLSAEEKAAIRYLSFLTLKPTMYIANVNEDGFENNPYLDQVREIAAKEGSVVVPVCAAVEADIAELDDEERDEFMQELGLEEPGLNRVIRAGYKLLNLQTYFTAGVKEVRAWTIPVGATAPQAAGKIHTDFEKGFIRAQTISFEDFITYKGEQGAKEAGKMRAEGKDYIVKDGDVMNFLFNV", "values": [{"measurement": "soluble on expression in E. coli", "value": "not soluble"}]}
{"sequence": "MVYSWQHCPNTRSNTEAMMAHDWDEYAANWEKDPATHAFAQSVFEHLTKILSLQGKHILDFGCGTGLLSQRMSPFARDIVALDSSEAMIEELDRKELRNVEPVVDCLTRGLVAQHPAFRKQFDLVVASSVCAFLPNLQDVTDIIFTLVDEGGYFVHFDWLADGKSEIGLSTTEIESVLRNAGFSAVETRVAFDVTTAQGTQPVVVGIARK", "values": [{"measurement": "soluble on expression in E. coli", "value": "not soluble"}]}
{"sequence": "MDAKHIEKVFVKKVPAKSNKAQVKYPFDENSVNVLIIGLDKASNRSTYDLHRTDTILFLNINFKDKKVKGISIPRDTLTEIYKVGKWDKINSAFGYGGGEKEEGFFYTMETVSKLLGGMPIEYYVGFDLDAVRKVVNILGGVYVNVEVPVKVKTKWVNIDLKPGYQKLNGIETLYYALWRKTPGGDIDRIKRDKELILSVFEQLKESNKIITLPEIYWKIRRHFYTNLSLQQITSLAYFAQNMKKEDIVFESIPGDYFNYMGVSYWKPDYEGIKKLVKDLFGYDIEIDLKMPEKYKYARRIIVKAKKENNISYSHTNKSYSTESSQNQNSQSNSEVNLVQKQTETIENSTQSSSPFDAQWRNSSEDTQTLPPENDSQTTQGTQQQQATTESEIQVDTPSTSSDVVSNVYGGRLEHHHHHH", "values": [{"measurement": "soluble on expression in E. coli", "value": "soluble"}]}
{"sequence": "MAKRIVAMSSTHIAMLDAIGEVRCITGVSGIDYISNPDIQARRDSIGDVGYEGNINYELLLSLDPDLVLLYGVNGASAMESKLEELDIPFMYVGDYLEESPLGKAEWMVVLSEVTGKREKGEKAFAAIPVRYNALKKKVADSTLEHHHHHH", "values": [{"measurement": "soluble on expression in E. coli", "value": "soluble"}]}
{"sequence": "MYTTQMDAAKKGIITDEMRIVAEKEGVHVEKLRELVASGKVVIPANKNHKKLEPQGIGEGLRTKINVNIGISKDCCNFEMELEKAKKAIELKAEAIMDLSSYGKTREFRRKLVEMSPVMIGTVPVYDAVGFYEKDLKDISAEEFFEVVEKHAEDGVDFMTIHAGINRETAKRFKENGRLTNIVSRGGSLIFAWMELTGNENPFYEQYDRLLQIFEKYDVTISLGDALRPGSINDSTDASQIQELIVLGELTKRAWEKNVQVMIEGPGHMAINEIAPNMVLEKKLCHGAPFYVLGPIVTDIAPGYDHITSAIGGAIAAANGADFLCYVTPAEHLRLPDIDDMKEGIIAARIAAHAADIAKGIKGAREWDYQMSEARRNLDWNRMFELAIDREKAERYRKSSMPEDEDTCTMCGRMCAVKNTNKALKGEKINIL", "values": [{"measurement": "soluble on expression in E. coli", "value": "not soluble"}]}
{"sequence": "MKVLHMNAGAEEGGGKTHIISLLSQFSKEEVELMVFEEGAIAREARNLGIQVHVFTQSSRYDLSILSKIKAFINENQFDIVHTHGARANFYLSLLKKGIKAKWIMTVHSDPTLDFMKRGLKGWVFTKLNLRSFRKVDLFFAITENFKRNIIKLGVPEEKICTVYNGIEYDSNPAKPYDKSEFGIDEGIFTAIQVARLHPVKGHDILFEALQKIKIPNIKVLLLGDGPIEAELKEMVKQKGLEDKVMFLGFRIDSKELYASAHINLLTSYSESFPLVLLEAANQRLTSIATNVGDMKKLIVDDTYGWIVPIGDADSLANALENAYEKWLNGELEAMGNRLYTHASTHFSLKNLYEDTYNAYKTLLLK", "values": [{"measurement": "soluble on expression in E. coli", "value": "not soluble"}]}
{"sequence": "MEEVMALSEPEQNTWINRPEYSEVSEDRIVIVSDANTDFWENTYYDFSHYTGHVYGKETESDFTFQVRVKADFSALYDQAGIFIGGTETAWIKAGIEFNDGQPSIGCVVTNNNSDWSTGLFPGNPGDFWMRVTSKSDVIRIQYSIDGKNWPLLRLCTWPGTRKRFIGVMCCSPKRKGLSAEFTEILLTTPLDSDLHDLSLEHHHHHH", "values": [{"measurement": "soluble on expression in E. coli", "value": "soluble"}]}
{"sequence": "MTIYQHLLILWSSLFASTFAGTAEEVAKHLELGSQFLARAQFADALTQYHAAIELDPKSYQAIYRRATTYLAMGRGKAAIVDLERVLELKPDFYGARIQRGNILLKQGELEAAEADFNIVLNHDSSNNDVQEKTALIEQHRQLRHQIKSAYAGGDCATVEEYINHIIEIQVWDASLYRMRAKCLEERGELKKAIHDMRIVSKLSTDSTDTMFETSKLLYTVGDLEESLNVIRECLKLNPDHKSCYPFYKKLRKVVKSLESMKKKVENSDWMACLEEGQKTMKFDPTPSVQLNVFRITNRCQREAGHISEAIAECNEILNDDPSDADILCERAEAHILDEDYDSAIEDYQKATEVNPDHREAKEGLEHAKRLKTQAGKRDYYKILGVKRNASKREITKAYRKLAQKWHPDNFSDEEEKKKAEKKFIDIAAAKEVLQDEEKRRQFDQGVDPLDPEAQRQGGGHHGGFGHGFPHGFHHFGGGGGGEHSFKFNWG", "values": [{"measurement": "soluble on expression in E. coli", "value": "not soluble"}]}
